A protein production outcome set (Wang et al. 2014)

assay: label from the status in PepcDB records

Row | Sequence | protein production
1 | MGINEIIMYIMMFFMLIAAVDRILSQFGGSARFLGKFGKSIEGSGGQFEEGFMAMGALGLAMVGMTALAPVLAHVLGPVIIPVYEMLGANPSMFAGTLLACDMGGFFLAKELAGGDVAAWLYSGLILGSMMGPTIVFSIPVALGIIEPSDRRYLALGVLAGIVTIPIGCIAGGVIAMYSGVQINGQPVEFTFALILMNMIPVLIVAVLVALGLKFIPEKMINGFQIFAKFLVALITIGLAAAVVKFLLGWELIPGLDPIFMAPGDKPGEVMRAIEVIGSISCVLLGAYPMVLLLTRWFEKPLMNVGKLLNVNNIAAAGMVATLANNIPMFGMMKQMDTRGKVINCAFAVSAAFALGDHLGFAAANMNAMIFPMIVGKLIGGVTAIGVAMMLVPKDDAAQVKTEAEAQS | failed
2 | MGISPPLTAVSAFGTDVSGNAFIGAGVATLAVLMVLSAFFSSSEIAMFSIPRHRIDALVEEGRSGADAVAALKSDPHRLLITILVGNNLVNIAMSSIATGLFATSMSQGKAVLAATFGVTALVLLFGESAPKSYAVENSESWALSIAKPLQWSERFLYPLVVLFDYLTRAVNQFTGGRAAIESSYVTRSEIQDMIKTGEREGVIEEDEREMLQRIFRFNNTIAKEVMTPRLDVVAVSKTDTIEAAIQTCTQAGHERVPVYDGELDNVIGVVSLEDLVRESLYGETEDAELDDLIEPTLHVPESKNVDDLLQEMQDERVQLVVVIDEFGTTEGLLTAEDITEEIVGEILDGGEDLPIDSVDEDTVRVRGEVNIEEVNEALNIDLPEGEEFETIAGFIFNRAGRLVEEGEAFRFEDIELTVEHVENTRIMKARVQRLDSAAEADANAEVLTADSTGNGA | failed
3 | MGKDGLSDDQVSSMKEAFMLFDTDGDGKIAPSELGILMRSLGGNPTQAQLKSIIASENLSSPFDFNRFLDLMAKHLKTEPFDRQLRDAFKVLDKEGTGFVAVADLRHILTSIGEKLEPNEFDEWIKEVDVGSDGKIRYEDFIARMVAK | failed
4 | MGKEFFLQHDIVIMYSILFVFIIILKMQFFTWFGMLACMFGIVFYTLNEYMTHRFLFHIKPPKNTFLLKMLRRLHYDHHVYPDDLKLLFLPVWFSIPSFTIYLLIAYGITKSVTITLSFGIGMIIMLLVYEWKHYIAHRPIRPVTKFGRWLKKQHILHHYKNEKFWFGVSNPVFDFIFGTLKDGKDVELSETARNLEKEKKTKVVR | failed
5 | MGKGCAASLWPTAIGPRMPRPLSLLPRPAGLMLRLVGSLVLTLWLVWLLADRLALLAPGEVIAALSGLPVWRLAAALLATAVSFWALGRYDGVAHRHFRTGLAARQARLCGMAAIGFSQFVGCGVLSGSFARWRMIGDLTPALALRLTTFVAITFLLALAFWASALCLIAPPLPGLRQTGVAGLALLLPITLVLFLLPRLRLGRFTLRLPSLRALGAILGWAALDLAAAAAVLWVLLPALSWTDLPLLMSAYVLALAAGLLSGAPGGLGAFELTLLALLPAIPGAELMAAVLAYRLIYVALPALAAVPLLLSPPDLRLGRQHRLPRRIHHHPPARPRAETAVVTQSRGYVLSGGFADMAVVETDQSLIMLFDPVCGGRHPDLYLLARRAAQRNLFALVYKCSARVAVSARRAGWRVRHVSDEATLVPADFTIAGSHRRQLRRKLRQAERAGLTVRRASTLPLTQMAAVDRLWQEANGRAWGLTMGRFAPDYLARQAVFLAWRGARLEGFVSFHRSRDEWCLDLMRTHPDAPEGTMHALVATALAATAAARVPRLSLAAVPAGRLGHRFDGLRQFKDSFAPRWQPLYMAAPGWTAIALAAADLARHVQAPPPLAAPDAQPAHDLDEEIEFASLTGT | failed
6 | MGKGDPKKPRGKMSSYAFFVQTCREEHKKKHPDASVNFSEFSKKCSERWKTMSAKEKGKFEDMAKADKARYEREMKTYIPPKGETKKKFKDPNAPKRPPSAFFLFCSEYRPKIKGEHPGLSIGDVAKKLGEMWNNTAADDKQPYEKKAAKLKEKYEKDIAAYRAKGKPDAAKKGVVKAEKSKKKKEEEEDEEDEEDEEEEEDEEDEDEEEDDDDE | failed
7 | MGKKKNKKTEVQQPDPMRKNWIMENMDSGVIYLLESWLKAKSQETGKEISDIFANAVEFNIVLKDWGKEKLEETNTEYQNQQRKLRKTYIEYYDREMK | not failed
